Experimental findings from paper PMC3085272 are described below.

pKd: −log10 of the molar value.

The experiment has as its target Rac1-GMPPNP (UniProt P63000). Description: equilibrium dialysis. On the technique in general: In equilibrium dialysis free small molecules cross a membrane that holds back macromolecules.

In turn, “ΔWRC (VCA-deleted WRC, containing WAVE1(1-186)) (from UniProt Q7L576;Q9Y2A7;Q92558;Q9NYB9;Q8WUW1) (complex)” gave a pKd of 5.70 to 6.00.

One may read the pKd as the Kd on a negative log10 scale, so that one unit is a factor of ten.
